Target: T1, hIL-4Rα (Sino Biological) (human, UniProt P24394 26-232)
T1 construct: Bought protein immobilised on the CM5 chip for SPR
Assay: SPR (Biacore 2000), hIL-4Rα (Sino Biological) immobilised to about 500 RU on CM5, IgG as analyte
Description: Specifically, hIL-4Rα (Sino Biological) was diluted to a concentration of […] in a 10 mM NaAc buffer (pH 4.0) and immobilized to about 500 response units (RU) on a CM5 sensor chip (GE Healthcare). […] After binding and dissociation analysis, regeneration of the CM5 chip was carried out by flushing the CM5 chip with a buffer solution (10 mM Glycine, pH 2.0) at a flow rate of 30 μl/min for 90 seconds. The sensorgram, obtained by binding for 90 seconds and dissociation for 900 seconds, was normalized and the value of a blank cell was subtracted therefrom to calculate the affinity.
In this manner, affinity may vary depending on the level of antigen immobilization.

Kd: 1.21 nM
koff: 0.000177 s⁻¹
kon: 147000 M⁻¹ s⁻¹
B1: 4R25 (antibody, V domains shown)
VH: EVQLLESGGGLVQPGGSLRLSCAASGFTFSNYAMSWVRQAPGKGLEWVSWISPNSGNIYYADSVKGRFTISRDNSKNTLYLQMNSLRAEDTAVYYCARRPLSAAWSHSSYYNAMDVWGQGTLVTVSS
VL: QSVLTQPPSAPGTPGQRVTISCTGSSSNIGSNSVNWYQQLPGTAPKLLIYDDSHRPSGVPDRFSGSKSGTSASLAISGLRSEDEADYYCDAWDSSLSAYVFGGGTKLTVL

From patent US20210403580A1 (AJOU UNIVERSITY INDUSTRY ACADEMIC COOPERATION FOUNDATION, published 2021)
